Test [1] concerns the target full-length, untagged 18.5-kDa murine MBP (A1-R168) (mouse). Kind of test: ITC; Fyn-SH3 (0.7-1.3 mM) injected into the cell with MBP (45-80 uM); 20 mM HEPES, 100 mM NaCl, pH 7.4; 37 °C; 2 independent measurements; one-set of sites model; apparent values, first 3-4 points excluded (aggregation).
Test [2] shares this target. Kind of test: ITC; Fyn-SH3 (0.7-1.3 mM) injected into the cell with MBP (45-80 uM); 20 mM HEPES, 100 mM NaCl, pH 7.4; 22 °C; 3 independent measurements; one-set of sites model; apparent values, first 3-4 points excluded (aggregation). A general note: In ITC the heat of successive injections is recorded.
Test [3] concerns the target xα2(S38–S107) peptide of murine 18.5 kDa myelin basic protein (mouse). Kind of test: NMR titration; unlabelled Fyn–SH3 titrated into 0.8 mM 15N-labelled xα2-peptide; 2D 15N-HSQC; 20 mM Hepes, 100 mM NaCl, 10% 2H2O, pH 7.4; molar ratios 1:0 to 1:1.2; fractional saturation fit of Y65 and T95 shifts; KD values are only estimates.

Several values for one entry are separate records, joined by “and”; a condition that tells them apart may be missing. Identical values can stand only once.

Sequence of full-length, untagged 18.5-kDa murine MBP (A1-R168) (mouse) (P02686 other isoform, or with tags, fused parts or gaps): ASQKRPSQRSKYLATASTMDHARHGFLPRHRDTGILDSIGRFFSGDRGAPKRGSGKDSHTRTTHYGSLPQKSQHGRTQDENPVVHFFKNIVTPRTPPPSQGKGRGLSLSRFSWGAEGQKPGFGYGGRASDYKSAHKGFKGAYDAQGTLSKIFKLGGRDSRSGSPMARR

The stoichiometry N is the number of molecules, sites or subunits per partner or assembly. With “Fyn-SH3 domain (Gallus gallus Fyn, residues 85-142) (from UniProt Q05876 85-142) (domain or fragment)”, the Kd in test [1] and in test [2] was 5 µM each time. Besides, the stoichiometry N worked out at 1.2 in test [1] and 0.6 in test [2].

“Fyn–SH3 domain (Gallus gallus Fyn tyrosine kinase, residues 85–142) (from UniProt Q05876 85-142) (domain or fragment)”: the Kd in test [3] is 7.6 µM and 4 µM.

The record behind these values is paper PMC4266924.
